Data from US20130136743A1 (LABORATOIRE FRANCAIS DU FRACTIONNEMENT ET DES …, published 2013).

T1: Epitope peptide GGGGNLTQDRAQVEMQGSR
T1 peptide: GGGGNLTQDRAQVEMQGSR

T2: AMHR-II human receptor (human, UniProt Q16671 18-573, limits assumed)
T2 sequence (looked up): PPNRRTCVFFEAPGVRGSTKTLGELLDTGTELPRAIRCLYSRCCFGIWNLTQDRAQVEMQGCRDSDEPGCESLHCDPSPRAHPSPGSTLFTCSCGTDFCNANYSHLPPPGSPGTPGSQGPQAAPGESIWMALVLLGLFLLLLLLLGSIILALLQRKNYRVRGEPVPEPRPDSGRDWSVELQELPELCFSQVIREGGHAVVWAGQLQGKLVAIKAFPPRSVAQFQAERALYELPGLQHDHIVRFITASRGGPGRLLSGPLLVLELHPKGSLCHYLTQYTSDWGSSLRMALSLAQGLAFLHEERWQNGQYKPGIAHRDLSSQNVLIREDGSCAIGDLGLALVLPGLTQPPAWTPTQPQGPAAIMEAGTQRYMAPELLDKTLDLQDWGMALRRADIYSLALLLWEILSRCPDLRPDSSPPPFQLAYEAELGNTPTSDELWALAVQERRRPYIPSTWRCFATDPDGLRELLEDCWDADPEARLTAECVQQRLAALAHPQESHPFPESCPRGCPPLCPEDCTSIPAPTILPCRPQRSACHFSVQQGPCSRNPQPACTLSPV

B1: chimeric 12G4 monoclonal antibody (antibody, V domains shown)
VH: QVQLQQSGPELVKPGASVRMSCKASGYTFTSYHIHWVKQRPGQGLEWIGWIYPGDDSTKYNEKFKGKTTLTADKSSSTAYMLLSSLTSEDSAIYFCTRGDRFAYWGQGTLVTVSA
VL: QIVLTQSPAIMSASLGEGITLTCSASSSVRYIHWYQQKSGTSPKLLIYSTSNLASGVPSRFSGSGSGTFHSLTISSVEAEDAADYYCLQWSSYPWTFGGGTKLEIKR
notes: Variable regions without leader joined to the human constant regions; also called 12G4-Chimeric; unmutated chimeric 12G4 antibody
B2: huVH-VL, humanized antibody huLFB112 expressed as scFv on phage (scFv, part only; not given: scFv linker and phage partner, V domains shown, not shown: another chain or arm of the molecule; large carriers; small tags and cut ends)
VH: QVQLVQSGAEVKKPGASVKVSCKASGYTFTSYHIHWVRQAPGQRLEWMGWIYPGDDSTKYSQKFQGRVTITRDTSASTAYMELSSLRSEDTAVYYCTRGDRFAYWGQGTLVTVSS
VL: DIQMTQSPSTLSASVGDRVTITCRASSSVRYIAWYQQKPGKAPKLLIYSTSSLESGVPSRFSGSGSGTEFTLTISSLQPDDFATYYCLQWSSYPWTFGGGTKVEIK
B3: mVH-VL, murine antibody mLFB112 expressed as scFv on phage (scFv, part only; not given: scFv linker, part only)
scFv, part: QVQLQQSGPELVKPGASVRMSCKASGYTFTSYHIHWVKQRPGQGLEWIGWIYPGDDSTKYNEKFKGKTTLTADKSSSTAYMLLSSLTSEDSAIYFCTRGDRFAYWGQGTLVTVSAQIVLTQSPAIMSASLGEGITLTCSASSSVRYIHWYQQKSGTSPKLLIYSTSNLASGVPSRFSGSGSGTFHSLTISSVEAEDAADYYCLQWSSYPWTFGGGTKLEIK

Key:
[1] = biological target: T3, AMHR-II/Fc fusion protein (human, UniProt Q16671 18-149, limits assumed); assay: SPR, BIAcore X100; AMHR-II/Fc immobilised on CM5 chip, antibody injected; 25 C
T3 construct: also called AMHR-II recombinant receptor expressed in the form of fusion protein with a region Fc; recombinant target; not shown: Fc region
Description: The affinity of the antibodies for their antigen, AMHR-II, is determined by the SPR (Surface Plasmon Resonance) technique on BIACore X100 (BIACore, GE Healthcare). The AMHR-II recombinant receptor, expressed in the form of fusion protein with a region Fc, is immobilized by covalent coupling between its amine functions and the carboxyl groups of dextran activated in succinimide esters, present on the surface of the type CM5 sensor chip. The COOH groups of the sensor chip are activated for 7 minutes with EDC/NHS mixture (0.1 M of N-hydroxysuccinimide and 0.1 M of 3-(N,N-dimethylamino)propyl-N-ethylcarbodiimide) at a flow of 10 μl/min then the AMHR-II/Fc fusion protein, diluted to 5 μg/ml in 10 mM sodium acetate buffer, pH 4.0, is injected at […] on track 2 of the sensor chip so as to reach 300 RU. The ester groups that have not reacted with the amines of the fusion protein are deactivated by injection of a solution of ethanolamine-HCl 1M, pH 8.5 for 7 min at a flow of 10 μl:min. Track 1, serving as negative control, was activated and deactivated like track 2.
All the measurements are carried out at 25° C. The antibodies to be analysed are diluted in HBS-EP running buffer (BIACore, GE Healthcare) at concentrations from 6.25 to 3333 nM and injected on the sensor chip for 2 min at a flow of 30 μl/min. The dissociation step is monitored for 10 min and then the surface is regenerated by injection of 10 mM glycine buffer, pH 1.5 for 30 s at 10 μl/min.
The sensorgrams obtained are analysed using the 1:2 kinetic model of the BIAevaluation 3.1 software.

[2] = biological target: T1, Epitope peptide GGGGNLTQDRAQVEMQGSR; assay: method not stated; Example 2, heading names cov434-AMHR-II cells and the epitope peptide
[3] = biological target: T2, AMHR-II human receptor; assay: method not stated; determined on the AMHR-II human receptor; determined on the AMHR-II human receptor (table footnote), apart from the tabulated 2.35 × 10^-7M
[4] = biological target: T3, AMHR-II/Fc fusion protein; assay: direct phage ELISA, target coated at 500 ng/well; 3.00E+10 phages per well as printed
[5] = biological target: T3, AMHR-II/Fc fusion protein; assay: direct phage ELISA, target coated at 500 ng/well; 3.00E+09 phages per well as printed
[6] = biological target: T3, AMHR-II/Fc fusion protein; assay: direct phage ELISA, target coated at 500 ng/well; 3.00E+09 phages per well as printed (third row)
[7] = biological target: T3, AMHR-II/Fc fusion protein; assay: direct phage ELISA, target coated at 500 ng/well; 3.00E+09 phages per well as printed (second row)
[8] = biological target: T3, AMHR-II/Fc fusion protein; assay: direct phage ELISA, target coated at 500 ng/well; 3.00E+10 phages per well as printed (second row)
[9] = biological target: T3, AMHR-II/Fc fusion protein; assay: direct phage ELISA, ratio of specific binding; 3.00E+10 phages per well as printed (second row)
[10] = biological target: T3, AMHR-II/Fc fusion protein; assay: direct phage ELISA, ratio of specific binding; 3.00E+09 phages per well as printed (third row)
[11] = biological target: T3, AMHR-II/Fc fusion protein; assay: direct phage ELISA, ratio of specific binding; 3.00E+09 phages per well as printed (second row)
[12] = biological target: T3, AMHR-II/Fc fusion protein; assay: direct phage ELISA, ratio of specific binding; 3.00E+09 phages per well as printed
[13] = biological target: T3, AMHR-II/Fc fusion protein; assay: direct phage ELISA, ratio of specific binding; 3.00E+10 phages per well as printed

| Binder | OD 450 nm, +covering [4] | OD 450 nm, Diff (specific binding) [4] | OD 450 nm, +covering [5] | OD 450 nm, Diff (specific binding) [5] | OD 450 nm, +covering [6] | OD 450 nm, Diff (specific binding) [6] | OD 450 nm, +covering [7] | OD 450 nm, Diff (specific binding) [7] | OD 450 nm, +covering [8] | OD 450 nm, Diff (specific binding) [8] | other results |
| --- | --- | --- | --- | --- | --- | --- | --- | --- | --- | --- | --- |
| B1 | – | – | – | – | – | – | – | – | – | – | Kd [1]: 0.212 µM; koff [1]: 0.00074 s⁻¹; kon [1]: 3500 M⁻¹ s⁻¹; Kd [2]: 0.235 µM; koff [2]: 0.00153 s⁻¹; kon [2]: 6490 M⁻¹ s⁻¹; Kd [3]: ~0.01 µM |
| B2 | 1.25 OD | 1.1 OD | 0.395 OD | 0.323 OD | 0.135 OD | 0.086 OD | 0.226 OD | 0.17 OD | 0.689 OD | 0.593 OD | – |
| B3 | 2.81 OD | 2.65 OD | 1.57 OD | 1.51 OD | 0.495 OD | 0.446 OD | 0.946 OD | 0.887 OD | 2.19 OD | 2.11 OD | Ratio mVH-VL/huVH-VL [9]: 3.6; Ratio mVH-VL/huVH-VL [10]: 5.2; Ratio mVH-VL/huVH-VL [11]: 5.2; Ratio mVH-VL/huVH-VL [12]: 4.7; Ratio mVH-VL/huVH-VL [13]: 2.4 |
